The values below come from patent publication US9605266.

The target of the data set is C-C chemokine receptor type 5 (CCR5) (Homo sapiens) (UniProt P51681). Briefly: flow. Particulars: 2'-F pyrimidines (2'-F-C, 2'-F-U), negative control.
Sequence of C-C chemokine receptor type 5 (CCR5) (Homo sapiens) (P51681 whole entry): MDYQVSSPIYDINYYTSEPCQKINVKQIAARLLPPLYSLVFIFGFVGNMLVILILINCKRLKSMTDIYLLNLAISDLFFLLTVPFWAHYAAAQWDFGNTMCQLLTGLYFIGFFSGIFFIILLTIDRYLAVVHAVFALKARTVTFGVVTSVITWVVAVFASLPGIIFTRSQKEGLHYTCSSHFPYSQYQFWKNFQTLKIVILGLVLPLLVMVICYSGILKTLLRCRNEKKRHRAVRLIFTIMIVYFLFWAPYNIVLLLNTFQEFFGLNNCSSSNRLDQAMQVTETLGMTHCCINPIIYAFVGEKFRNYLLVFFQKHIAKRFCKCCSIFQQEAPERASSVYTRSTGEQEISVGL

“GGGAGGACGAUGCGGNNNNNNNNNNNNNNNNNNNNCAGACGACUCGCCCGA [0-RNA pool (starting library)]”: the binding signal (% Cy3-positive cells) reads like this: (untreated 0.076%) 0.808; (untreated 0.191%) 7.63.
